Assay results: patent US20050010967A1, “SK3-1B GFP transgenic mouse model for spinocerebellar ataxia and hyperexcitable behavior” (The Regents of the University of California, priority 2003, published 2005)

Legend:
[1] = biological target: T1, Kv1.3 channels in Jurkat T lymphocytes (Homo sapiens, UniProt P22001); test: Whole cell patch clamp of endogenous Kv1.3 current in Jurkat T lymphocytes; assay type: cell-based
T1 construct: they express SK2 channels and no other SK channels, along with voltage-gated Kv1.3 channels; endogenous in cells; host or cells: Jurkat T lymphocytes (human)
Source text: (§1) Electrophysiology. PC12 and Jurkat T cells were studied in the whole cell configuration of the patch clamp technique with a holding potential of −80 mV. We determined SK and Kv current amplitude in untransfected cells or in cells transfected with SK3-1B-GFP, SK3-1BIRES-GFP or control constructs (GFP vector alone, GFP-Kv1.7). […] Brightly GFP-positive cells were identified under a fluorescence microscope to allow the analysis of cells expressing high levels of the channel constructs for electrophysiological studies. Control constructs were expressed at equivalently high levels as assessed by the intensity of the GFP signal.
(§2) To activate SK channels, the pipette solution contained (in mM): 145 K^+ aspartate, 2 MgCl2, 10 HEPES, 10 K2EGTA, and 8.5 CaCl2 (1 μM free Ca^2+), pH 7.2, 290-310 mOsm. […] The amplitude of the KV current was measured as the maximum current at 30 mV in 160 Na^+ aspartate. […]
(§3) SK3-1B suppresses other SK channels in a dominant-inhibitory manner. The inventors next determined whether SK3-1B could suppress SK2 channels. […] Using the electrophysiological protocol described above for PC12 cells, SK2 and Kv1.3 currents were measured in Jurkat cells. The inward SK2 current, detected at potentials more negative than −40 mV, was blocked by Lei-Dab (FIG. 5a), a highly specific SK2 peptide inhibitor. […]

[2] = biological target: T2, SK2 channels in Jurkat T lymphocytes (Homo sapiens, UniProt Q9H2S1); test: Whole cell patch clamp of endogenous SK2 current in Jurkat T lymphocytes; assay type: cell-based
T2 construct: The native SK2 current was suppressed by SK3-1B; endogenous in cells; host or cells: Jurkat T lymphocytes (human)
Source text: as §1, §2, §3

native SK3 in PC12 cells = test: Immunolabeling and confocal microscopy of native SK3 localization in PC12 cells; assay type: cell-based, rat; settings: transfected PC12 cells; untransfected 1.72±0.08
Description: Immunostaining. Following washing with Dulbecco's phosphate buffered saline (DPBS), cells were fixed with 4% paraformaldehyde for 20 min and washed 2× with DPBS. Permeabilization and blocking was done with 0.2% Triton-X-100 in 10% normal goat serum, followed by a wash with DPBS. Permeabilized cells were incubated with rabbit anti-SK3 antibody (Alomone Labs, Jerusalem, Israel) in a carrier solution containing 1% normal goat serum and 0.2 % sodium azide for 4 h at 4° C. Cells were subsequently washed and incubated with 1 μg/ml Alexa-Fluor 594 (referred to as Alexa-red)-conjugated goat-anti-rabbit-IgG (Molecular Probes) for 1 h at room temperature. […] As an additional test of antibody specificity, the anti-SK3 antibody was shown not to react with SK3-1B protein, an isoform that lacks the SK3 N-terminal epitope detected by the antibody (data not shown). […]
Confocal microscopy. […] The Scion image 4.0.2 program (Scion Corporation, Frederick, Md., USA) was used to determine the pixel intensity of fluorescence that tagged presumptive intracellular and membrane SK3 protein. Three axes were drawn through each stained cell and pixel intensities were measured along each of these axes. […] The average ratio of presumptive membrane to intracellular fluorescence was estimated from these intensity histograms. The expression level of each transfected construct was quantitated as mean pixel intensity. […]

[3] = system: endogenous Kv current in PC12 cells; test: Whole cell patch clamp of endogenous Kv current in PC12 cells; assay type: cell-based, rat; settings: transfected PC12 cells; 160 mM Na+ aspartate external; untransfected 707.94±147.7 pA
Source text: as §1, §2

[4] = biological target: T3, endogenous SK3 current in PC12 cells (Rattus norvegicus, UniProt P70605); test: Whole cell patch clamp of endogenous SK (SK3) current in PC12 cells; assay type: cell-based; settings: transfected PC12 cells, 48 h post-transfection; untransfected 6.24±1.57 nS
T3 construct: these cells natively express SK3 currents; endogenous in cells; host or cells: PC12 (rat pheochromocytoma)
Source text: as §1, §2

[5] = 100 nM Lei-Dab, untransfected Jurkat T lymphocytes
[6] = transfected Jurkat T lymphocytes, n=4

T2 sequence (Q9H2S1 whole entry): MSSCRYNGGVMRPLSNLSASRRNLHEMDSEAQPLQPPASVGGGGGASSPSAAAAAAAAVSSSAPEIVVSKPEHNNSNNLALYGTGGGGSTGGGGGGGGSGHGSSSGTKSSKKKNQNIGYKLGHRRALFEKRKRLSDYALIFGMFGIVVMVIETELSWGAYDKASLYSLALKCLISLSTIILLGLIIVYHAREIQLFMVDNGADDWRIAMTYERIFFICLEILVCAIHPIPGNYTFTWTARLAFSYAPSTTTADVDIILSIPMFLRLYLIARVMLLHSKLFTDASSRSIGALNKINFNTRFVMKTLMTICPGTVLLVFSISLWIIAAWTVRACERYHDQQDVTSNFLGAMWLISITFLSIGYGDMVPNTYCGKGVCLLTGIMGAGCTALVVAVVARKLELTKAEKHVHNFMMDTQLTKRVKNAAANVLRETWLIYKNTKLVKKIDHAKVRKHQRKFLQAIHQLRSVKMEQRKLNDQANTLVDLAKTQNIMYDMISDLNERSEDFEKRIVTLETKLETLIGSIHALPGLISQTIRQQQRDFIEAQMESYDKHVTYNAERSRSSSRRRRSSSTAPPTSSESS
T3 sequence (P70605 whole entry): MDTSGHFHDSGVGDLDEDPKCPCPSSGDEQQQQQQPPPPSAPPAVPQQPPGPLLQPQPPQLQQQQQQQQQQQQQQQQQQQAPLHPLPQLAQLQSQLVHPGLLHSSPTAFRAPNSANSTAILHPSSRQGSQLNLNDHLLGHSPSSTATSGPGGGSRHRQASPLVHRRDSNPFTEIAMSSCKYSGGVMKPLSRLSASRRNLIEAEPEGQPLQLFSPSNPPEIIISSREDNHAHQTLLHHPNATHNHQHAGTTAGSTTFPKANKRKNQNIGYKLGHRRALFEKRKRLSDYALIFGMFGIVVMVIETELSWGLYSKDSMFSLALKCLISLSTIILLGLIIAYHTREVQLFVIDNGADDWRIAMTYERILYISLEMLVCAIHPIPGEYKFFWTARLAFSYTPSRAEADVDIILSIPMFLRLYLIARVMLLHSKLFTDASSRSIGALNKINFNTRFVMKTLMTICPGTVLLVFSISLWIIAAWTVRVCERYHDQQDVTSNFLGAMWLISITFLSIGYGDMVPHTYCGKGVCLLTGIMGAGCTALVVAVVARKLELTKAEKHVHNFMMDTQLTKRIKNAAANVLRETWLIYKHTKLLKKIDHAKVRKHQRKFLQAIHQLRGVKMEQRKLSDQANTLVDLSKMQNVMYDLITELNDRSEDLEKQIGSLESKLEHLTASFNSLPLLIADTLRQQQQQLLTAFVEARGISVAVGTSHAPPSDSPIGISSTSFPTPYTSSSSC
T1 sequence (P22001 whole entry): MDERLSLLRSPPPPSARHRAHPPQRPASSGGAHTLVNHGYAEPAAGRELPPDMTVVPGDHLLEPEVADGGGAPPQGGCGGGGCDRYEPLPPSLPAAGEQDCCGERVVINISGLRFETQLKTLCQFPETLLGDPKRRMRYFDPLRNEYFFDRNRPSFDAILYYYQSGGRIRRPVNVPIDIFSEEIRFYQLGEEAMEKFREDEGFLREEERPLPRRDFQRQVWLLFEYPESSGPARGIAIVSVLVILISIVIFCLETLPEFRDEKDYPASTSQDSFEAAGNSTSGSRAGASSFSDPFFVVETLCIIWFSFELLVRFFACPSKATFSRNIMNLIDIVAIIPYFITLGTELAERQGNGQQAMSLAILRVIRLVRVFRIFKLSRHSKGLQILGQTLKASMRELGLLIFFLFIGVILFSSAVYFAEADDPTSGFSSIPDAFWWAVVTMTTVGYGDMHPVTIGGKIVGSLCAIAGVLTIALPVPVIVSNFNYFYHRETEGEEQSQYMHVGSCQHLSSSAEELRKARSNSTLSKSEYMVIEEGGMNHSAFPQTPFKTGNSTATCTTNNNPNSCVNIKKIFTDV
Sequence of native SK3 in PC12 cells (P70605 whole entry): as the sequence (P70605 whole entry) above

| Molecule | Effect on Kv1.3 current [1, 5] | Effect on inward SK2 current [2, 5] | Kv1.3 current in transfected Jurkat T lymphocytes [1, 6] | Ratio of presumptive membrane to intracellular SK3 fluorescence (mean±SEM) (native SK3 in PC12 cells) | SK2 current in transfected Jurkat T lymphocytes [2, 6] | Kv currents (mean±SEM), maximum current at 30 mV [3] | SK currents (mean±SEM), slope conductance at −80 mV [4] |
| --- | --- | --- | --- | --- | --- | --- | --- |
| Lei-Dab [reference compound] | unaffected | blocked |  |  |  |  |  |
| SK3-1B-GFP: SK3-1B coding region inserted in-frame upstream to GFP in pEGFP-N1 expression vector; GFP-tagged truncated SK3 splice variant (protein, left off: large carriers, SK3-1B coding region inserted in-frame upstream to GFP in pEGFP-N1 expression vector; GFP-tagged truncated SK3 splice variant) MFSLALKCLISLSTIILLGLIIAYHTREVQLFVIDNGADDWRIAMTYERILYISLEMLVCAIHPIPGEYKFFWTARLAFSYTPSRAEADVDIILSIPMFLRLYLIARVMLLHSKLFTDASSRSIGALNKINFNTRFVMKTLMTICPGTVLLVFSISLWIIAAWTVRVCERYHDQQDVTSNFLGAMWLISITFLSIGYGDMVPHTYCGKGVCLLTGIMGAGCTALVVAVVARKLELTKAEKHVHNFMMDTQLTKRIKNAAANVLRETWLIYKHTKLLKKIDHAKVRKHQRKFLQAIHQLRSVKMEQRKLSDQANTLVDLSKMQNVMYDLITELNDRSEDLEKQIGSLESKLEHLTASFNSLPLLIADTLRQQQQQLLSAIIEARGVSVAVGTTHTPISDSPIGVSSTSFPTPYTSSSSC |  |  | resembles that in untransfected cells | 1.1±0.09 | no SK2 current is observed | 475.96±61.78 pA | 0.68±0.08 nS |
| SK3-1B-IRES-GFP: Untagged SK3-1B in bicistronic pIRES2-EGFP vector with GFP driven by an internal ribosome entry site (protein) MFSLALKCLISLSTIILLGLIIAYHTREVQLFVIDNGADDWRIAMTYERILYISLEMLVCAIHPIPGEYKFFWTARLAFSYTPSRAEADVDIILSIPMFLRLYLIARVMLLHSKLFTDASSRSIGALNKINFNTRFVMKTLMTICPGTVLLVFSISLWIIAAWTVRVCERYHDQQDVTSNFLGAMWLISITFLSIGYGDMVPHTYCGKGVCLLTGIMGAGCTALVVAVVARKLELTKAEKHVHNFMMDTQLTKRIKNAAANVLRETWLIYKHTKLLKKIDHAKVRKHQRKFLQAIHQLRSVKMEQRKLSDQANTLVDLSKMQNVMYDLITELNDRSEDLEKQIGSLESKLEHLTASFNSLPLLIADTLRQQQQQLLSAIIEARGVSVAVGTTHTPISDSPIGVSSTSFPTPYTSSSSC |  |  |  |  |  | 560.37±75.9 pA | 1.1±0.03 nS |
